Measured values: article PMC11514473, “The transition state for coupled folding and binding of a disordered DNA binding domain resembles the unbound state” (Nucleic Acids Research, 2024)

Legend:
285bZIP E295G = target: T1, 285bZIP E295G (human, UniProt P16220-1 285-339, C300S;C310S;C337S;E295G); test: stopped-flow fluorescence (koff/kon); 10 mM Mg2+; 10 mM MES pH 6.5, 150 mM NaCl, 10 mM MgCl2, 0.05% Tween-20, 25 C; NMR: 10 mM Tris-d11, 150 mM NaCl, 10 mM MgCl2, 1 mM NaN3, 5% D2O (NOE at 25 C); details: protein: recombinant; tags: extra N-terminal Gly; chain copies: 2; label: 5' Alexa Fluor 488; hairpin (self-annealing, 11 bp stem, CCCC loop)
T1 sequence: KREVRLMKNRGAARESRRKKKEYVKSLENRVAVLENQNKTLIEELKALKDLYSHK

285bZIP V288A = target: T2, 285bZIP V288A (human, UniProt P16220-1 285-339, C300S;C310S;C337S;V288A); test: as above; details: protein: recombinant; tags: extra N-terminal Gly; chain copies: 2; label: 5' Alexa Fluor 488; hairpin (self-annealing, 11 bp stem, CCCC loop)
T2 sequence: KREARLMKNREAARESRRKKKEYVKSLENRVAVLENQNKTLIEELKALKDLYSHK

285bZIP E295G/E299G = target: T3, 285bZIP E295G/E299G (human, UniProt P16220-1 285-339, C300S;C310S;C337S;E295G;E299G); test: as above; details: protein: recombinant; tags: extra N-terminal Gly; chain copies: 2; label: 5' Alexa Fluor 488; hairpin (self-annealing, 11 bp stem, CCCC loop)
T3 sequence: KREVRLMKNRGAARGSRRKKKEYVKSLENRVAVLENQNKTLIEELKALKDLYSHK

285bZIP E287G = target: T4, 285bZIP E287G (human, UniProt P16220-1 285-339, C300S;C310S;C337S;E287G); test: as above; details: protein: recombinant; tags: extra N-terminal Gly; chain copies: 2; label: 5' Alexa Fluor 488; hairpin (self-annealing, 11 bp stem, CCCC loop)
T4 sequence: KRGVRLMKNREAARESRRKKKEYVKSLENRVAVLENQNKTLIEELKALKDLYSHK

285bZIP E299G = target: T5, 285bZIP E299G (human, UniProt P16220-1 285-339, C300S;C310S;C337S;E299G); test: as above; details: protein: recombinant; tags: extra N-terminal Gly; chain copies: 2; label: 5' Alexa Fluor 488; hairpin (self-annealing, 11 bp stem, CCCC loop)
T5 sequence: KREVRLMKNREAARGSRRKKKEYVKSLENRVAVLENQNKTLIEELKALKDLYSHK

285bZIP E295A/E299A = target: T6, 285bZIP E295A/E299A (human, UniProt P16220-1 285-339, C300S;C310S;C337S;E295A;E299A); test: as above; details: protein: recombinant; tags: extra N-terminal Gly; chain copies: 2; label: 5' Alexa Fluor 488; hairpin (self-annealing, 11 bp stem, CCCC loop)
T6 sequence: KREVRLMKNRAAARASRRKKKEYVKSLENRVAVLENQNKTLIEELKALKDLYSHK

285bZIP E295A = target: T7, 285bZIP E295A (human, UniProt P16220-1 285-339, C300S;C310S;C337S;E295A); test: as above; details: protein: recombinant; tags: extra N-terminal Gly; chain copies: 2; label: 5' Alexa Fluor 488; hairpin (self-annealing, 11 bp stem, CCCC loop)
T7 sequence: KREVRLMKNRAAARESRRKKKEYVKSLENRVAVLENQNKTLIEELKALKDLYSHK

[1] = target: T8, CREB 285bZIP wild type (pseudo-WT, Cys to Ser) (human, UniProt P16220-1 285-339, C300S;C310S;C337S); test: stopped-flow fluorescence (koff/kon); koff 2.531 s-1; kon 6.7 nM-1 s-1; 10 mM Mg2+; 10 mM MES pH 6.5, 150 mM NaCl, 10 mM MgCl2, 0.05% Tween-20, 25 C; NMR: 10 mM Tris-d11, 150 mM NaCl, 10 mM MgCl2, 1 mM NaN3, 5% D2O (NOE at 25 C); details: protein: recombinant; tags: extra N-terminal Gly after TEV cleavage; His6-GB1 removed; chain copies: 2; label: 5' Alexa Fluor 488; hairpin (self-annealing, 11 bp stem, CCCC loop)
T8 sequence: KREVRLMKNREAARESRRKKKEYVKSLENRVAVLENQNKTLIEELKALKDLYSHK

[2] = target: T8, CREB 285bZIP wild type (pseudo-WT, Cys …); test: stopped-flow fluorescence (koff/kon); koff 2.44 s-1 averaged over competitor concentrations; 10 mM Mg2+; 10 mM MES pH 6.5, 150 mM NaCl, 10 mM MgCl2, 0.05% Tween-20, 25 C; NMR: 10 mM Tris-d11, 150 mM NaCl, 10 mM MgCl2, 1 mM NaN3, 5% D2O (NOE at 25 C); details: protein: recombinant; tags: extra N-terminal Gly after TEV cleavage; His6-GB1 removed; chain copies: 2; label: 5' Alexa Fluor 488; hairpin (self-annealing, 11 bp stem, CCCC loop)

How did the Kd (285bZIP E295G) turn out when CCTGACGTCAGCCCCCTGACGTCAGG (structured_DNA) [AlexaFluor488-CREh] was run?
The Kd was 6 ± 0.4 nM.

And the Kd (285bZIP V288A)?
The Kd was 0.46 ± 0.05 nM.

And the Kd (285bZIP E295G/E299G)?
Its Kd is 170 ± 50 nM.

What about the Kd (285bZIP E287G) of the same binder?
The Kd was 4.6 ± 0.6 nM.

And the Kd (285bZIP E299G)?
The Kd was 2.72 ± 0.15 nM.

And the Kd (285bZIP E295A/E299A)?
Its Kd is 0.102 ± 0.008 nM.

And the Kd (285bZIP E295A)?
The Kd was 0.239 ± 0.016 nM.

And the Kd [1]?
Its Kd is 0.38 ± 0.03 nM.

And the Kd [2]?
Its Kd is 0.36 ± 0.04 nM.
